Measured values as given in the DeepSol protein solubility set.

assay: soluble on expression in E. coli; label from the status in PepcDB or PDB records

Q: For “MGSDKIHHHHHHMASKEEQYAAFYQFLETLDCYLTTTNALENEVAQFKENPHREIAGFMLASSETIDVPKGFIRMLYCLEQDGYAYLDQQRCSFSAGQVMIVNEATSVSYQGQGMSMIIFYFKKHYFLDTLLNQLAEEPVMYRFFTEIASSEFENIPRYFVFASQPNSDVHVYSLLLLKQIVKMAYFNNKVTKAAFVLLVVELGQLPREALKMQDNYLSNHQRVEVILAYIEQQIAHVTLAEVAAKFHFHPNYLSNFLKEKTNKTFTEIVLAYRIQLAKNYLKQTDLSIQTIVERIGYQDKAFFYKRFKEEMGMTPKQYRQKEGMADVRRSL”, which “soluble on expression in E. coli” value is on record?
A: not soluble

Q: Which “soluble on expression in E. coli” value does the source give for “MEDFFSIGQIINTHGVRGELKIYPLTDDINRFDDLDSVYVDNEIKKVISVKKQPNKLILKLEGIDTLDEAVKYKNKYIKVLREDAVELKEGQYFIKDIIGCNVFDENDKDLGEVYDVISTKNNDVYCIRKEGQQDILVPALKDIVLKIEIENKKIVIKAVEEWLESLEHHHHHH” here?
A: soluble

Q: For “MKTAIVTDSTAYLPKEVRERLGIRLIPLSVIFGNETYREEIDMTADEFFAKIKQHPTLPTTSQPSVGEFVDLFTAIREEGYEAVVSIHLSSGISGTYQGAVTAGTMVDGLRVYAYDSEISCMAQGFYAIEAAEMAQAGRSPEDIIARLDEMKQTLRAYFMVDDLAHLQRGGRLTGAQAFIGGLLQIKPLLRFENKVIVPFEKIRTRKKAIHRIEELFAEDAEKGVPLKAAIIHANQPDEAHRWRDELSARYPHVEFSISYFGPVIATHVGEGALGLTWYQP”, which “soluble on expression in E. coli” value is on record?
A: soluble

Q: Which “soluble on expression in E. coli” value does the source give for “MSCYIYWDKIKRIASRLEGMNYHFDEMDTSGVMPLLDEIEEIAHDSTIDFESAKHILDDAEMNHALSLIRKFYVNLGMKLQMEKAQEVIESDSPWETLRSFYFYPRYLELLKNEAALGRFRRGERAVFIGGGPLPLTGILLSHVYGMRVNVVEIEPDIAELSRKVIEGLGVDGVNVITGDETVIDGLEFDVLMVAALAEPKRRVFRNIHRYVDTETRIIYRTYTGMRAILYAPVSDDDITGFRRAGVVLPSGKVNNTSVLVFKCPDKGELNSKLEGKPIPNPLLGLDSTRTGHHHHHH” here?
A: soluble

Q: With “MFEIATAKVDNMRVSIVGGGFAGLAAAQLAEEVTSDVHLYDKGTYSGDRRGAWGEMVWDYSQLPLDRHVPGYVREATTGIFIGSDGKTAINVPDGVILNRGELEKHWASTLEETEIIADAEVDEAEFRKLSAESDLLIDATGQFPISRRFTSLSYDVACPTLSGRIEADFSHLYPEPRALAYENYFLWIVPQSPDEATIGLGCQEDKSPAELYEDMRQLLAEVDIEPPERETLYSGTDVSNGLRSLSDCSYELNDCTVHIAGDAIGLANRLTGFGMVHAAQSGQAAVRSFVQGESYTRRLLCQNFWTKAVTGVVSPVHHTIGLDGIARLAKSDIEYQESFEPQQPTDILSAVRIFILEHHHHHH” as the sequence, how does the “soluble on expression in E. coli” value read?
A: not soluble

Q: With “MSKTRIAFVGAGNMAASLIGGLRAQGVEASLICASAPGAETRERISTEHGIEVFADNAEAVKGADVVVLAVKPQMMKSVCQALKASLEAHQLIVSVAAGITCASLTQWLGDQPVVRCMPNTPSLLRQGASGLYATDKVSPTQREQAEQLLSAVGVAVWVEQEKHMDAVTAVSGSGPAYFFLMMEAMTAAGVKLGLPEDIAKKLTLQTALGSALIATGSNVDAGELRRRVASPGGTTEAAIKAFQAGGFEALVETALTAADHRAAELAEQLGKLEHHHHHH” as the sequence, how does the “soluble on expression in E. coli” value read?
A: not soluble

Q: With “MGSDKIHHHHHHMTGQMNILLANPRGFCAGVDRAISIVERALELFSPPIYVRHEVVHNRYVVQNLKDRGAIFVEELDQVPDNSIVIFSAHGVSQAVRAEAKKRGLKVFDATCPLVTKVHLQVTRASRKGVECILIGHEGHPEVEGTMGQYDNPEGGVYLIESVEDVEALQVKDPENLCFVTQTTLSVDDTLDIIAALQAKFPSIEGPRKDDICYATQNRQDAVRSLATQAKLFIVVGSKNSSNSNRLRELAEKSGAQAYLVDSAADVKAEWFANVDKVAVTAGASAPEVLVKQVIDAITHLAPSVVTEVEGRKEDVVFAVPVELR” as the sequence, how does the “soluble on expression in E. coli” value read?
A: not soluble

Q: With “MKSLIIVNPADCIGCRTCEVACVVAHPSEQELNADVFLPRLKVQRLDSISAPVMCHQCENAPCVGACPVGALTMGEQVVQTNSARCIGCQSCVSACPFGMITIQSLPGDTRQQIVKCDLCEQREEGPACVESCPTQALQLLTERELRRVRQQRIVASGENPL” as the sequence, how does the “soluble on expression in E. coli” value read?
A: not soluble

Q: Which “soluble on expression in E. coli” value does the source give for “MGSDKIHHHHHHMTNTIPNWIKLNNEIMIQKDGKYQFEKDKEAVHSYFVDYINQNTVFFHDLKEKLDYLIKNDYYEEEFLSKYTFEQIKSIYKIAYSYKFRFPSFMSAFKFYNDYALKTNDKTKILERYEDRVSIVALYCADGDYEKAVEEVHTMMKQEYQPATPTFLNAGRKRRGEMVSCFLLEVGDSLNDISRAIDISMQLSKLGGGVALNLNKLRAKGEAIKDVENATKGVVGVMKLLDNAFRYADQMG” here?
A: not soluble

Q: Which “soluble on expression in E. coli” value does the source give for “MSLSTARIMLVDDHPIVREGYRRLIERRPGYAVVAEAADAGEAYRLYRETTPDIVVMDLTLPGPGGIEATRHIRQWDGAARILIFTMHQGSAFALKAFEAGASGYVTKSSDPAELVQAIEAILAGRRAMSPDIAQEIAEERVEGRATAIADLSPRETEILRMLASGMTSDEIAAGLCLSVKTVQNNHYQIKAKLGARTDAHLVWVAIEAGLVREGHHHHHH” here?
A: soluble

Q: For “MNGEEIIRFERVTKEYDGTVVLDDVSFAMERGKFYTLLGPSGCGKTTILRLIAGFIEPTEGTIYFHGKPIQNVPPNKRQVNTVFQDYALFPHLDVFENVAFGLRVKKMKEADIRQKVSEALRFVNLEGYERRRIQEMSGGQRQRVAIARAIVNEPEVLLLDEPLSALDLKLRTEMQYELRELQRRLGITFIFVTHDQEEALAMSDYIFVLNKGKIQQFGTPKDIYDEPINRFVADFIGESNILSGRMIDDFLVEFAGKQFACVDRGFAPNEPVDVVIRPEDLELAAPEDGQIVIRVDSLLFRGVHYEICGYDENGNEWLVHSTKKAEVGETVGLRFEPEAIHVMRVEREDEGA”, which “soluble on expression in E. coli” value is on record?
A: soluble

Q: Which “soluble on expression in E. coli” value does the source give for “MHFSRIVSGLACSIILNISVSNANAAQVENYTQYLPDGANLALMVQKIGASTPAIDYHAQQMALPASTQKVLTALAALLQLGPDFRFNTTLESHGTITDGVLRGNLIARFGGDPTLTRQQLRNMVATLRKAGVKQIAGDVVIDTSVFASHDKAPGWPWNDMTQCFSAPPAAAIVDRNCFSVSLYSAPNPGDTAFIRVASYYPVQMFSEVRTLAKGSPDAQYCELDVVPGELNRFTLTGCLTQRSEPLPLAFAVQNGASYAGAILKDELKKADIQIDGNLRRQTIPSPAGNVLAQTQSAPLHDLLKIMLKKSDNMIADTVFRTIGHQRFGVPGTWRSGADAVRQILRQKAGVDLGNSIVVDGSGLSRHNLISPATMMQVLQYIAQNDQELNFISMLPLAGYDGTLRYRGGLHEAGVNGKVSAKTGALQGVYNLAGFITTASGQRMAFVQFLSGYAVPPEDQKNRRAPLVRFESRLYKDIYQNN” here?
A: not soluble

Q: Which “soluble on expression in E. coli” value does the source give for “MLPRAEQKQQTRRALLDAAHQLMESGRGFGSLSLREVARTAGIVPTGFYRHFEDMDQLGLALVIEVGQTFRETIRLVRHNEFAMGGLIRASVKIFLERVAANRSQFLFLAREQYGGSLKVRQALGALREGISADLTADLAKMPKWQHLNADALSIIADLVVKSVFAMLPELIDPPPASLAPHLTPQAKITQQLRFIFIGARHWRGLGTHD” here?
A: not soluble

Q: Which “soluble on expression in E. coli” value does the source give for “MQNGYTYEDYQDTAKWLLSHTEQRPQVAVICGSGLGGLVNKLTQAQTFDYSEIPNFPESTVPGHAGRLVFGILNGRACVMMQGRFHMYEGYPFWKVTFPVRVFRLLGVETLVVTNAAGGLNPNFEVGDIMLIRDHINLPGFSGENPLRGPNEERFGVRFPAMSDAYDRDMRQKAHSTWKQMGEQRELQEGTYVMLGGPNFETVAECRLLRNLGADAVGMSTVPEVIVARHCGLRVFGFSLITNKVIMDYESQGKANHEEVLEAGKQAAQKLEQFVSLLMASIPV” here?
A: soluble

Q: With “MFPSPTPPLVSPTAVIEEENDDSVREFSRTLKSRLNCAMVKLSKEHEQVALIPPPPTEKIRKGSYSNKFAAKHRRCHSLDESKKFLSSLEDSSAHAAFLKAISSKHAKSNRVDNVNVSPLRWSSHRRTQSTQENSLQEVVAIDTLLKMSSSD” as the sequence, how does the “soluble on expression in E. coli” value read?
A: not soluble
